Experimental data taken from PMC314469, “Protein Interaction Networks by Proteome Peptide Scanning” (PLoS Biology, 2004).

T1: Boi1 SH3 (BOI1_YEAST), P38041
T1 chain: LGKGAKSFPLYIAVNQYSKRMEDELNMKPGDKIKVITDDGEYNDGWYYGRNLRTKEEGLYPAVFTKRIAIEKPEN

T2: Boi2 SH3 (BOI2_YEAST), P39969
T2 chain: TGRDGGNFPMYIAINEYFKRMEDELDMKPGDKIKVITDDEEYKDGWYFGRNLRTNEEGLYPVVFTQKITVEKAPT

T3: Myo5 SH3 (MYO5_YEAST), Q04439
T3 chain: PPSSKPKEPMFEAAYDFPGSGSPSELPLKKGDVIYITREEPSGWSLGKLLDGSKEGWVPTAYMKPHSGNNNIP

T4: Rvs167 SH3 (RV167_YEAST), P39743
T4 chain: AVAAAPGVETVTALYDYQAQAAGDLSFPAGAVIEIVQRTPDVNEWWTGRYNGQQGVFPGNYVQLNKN

T5: Yfr024 SH3 (LSB3_YEAST), P43603
T5 chain: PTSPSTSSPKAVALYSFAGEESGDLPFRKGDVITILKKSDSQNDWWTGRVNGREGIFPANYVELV

T6: Yhr016c SH3 (YSC84_YEAST), P32793
T6 chain: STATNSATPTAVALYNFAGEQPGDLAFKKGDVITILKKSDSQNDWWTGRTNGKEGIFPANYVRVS


Key:
Experiment in all cases: SPOT array
[1] = target: T1, Boi1 SH3 (BOI1_YEAST), P38041
[2] = target: T2, Boi2 SH3 (BOI2_YEAST), P39969
[3] = target: T3, Myo5 SH3 (MYO5_YEAST), Q04439
[4] = target: T4, Rvs167 SH3 (RV167_YEAST), P39743
[5] = target: Sho1 SH3 (SHO1_YEAST), P40073
[6] = target: T5, Yfr024 SH3 (LSB3_YEAST), P43603
[7] = target: T6, Yhr016c SH3 (YSC84_YEAST), P32793

Sequence of Sho1 SH3 (SHO1_YEAST), P40073 (P40073 295-366): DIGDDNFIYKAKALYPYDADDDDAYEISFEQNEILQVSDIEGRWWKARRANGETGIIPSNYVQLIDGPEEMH

Binder | normalised SPOT signal, Boehringer light units (BLU); mean over the file's lines of this peptide [1] | normalised SPOT signal, Boehringer light units (BLU); mean over the file's lines of this peptide [2] | normalised SPOT signal, Boehringer light units (BLU); mean over the file's lines of this peptide [3] | normalised SPOT signal, Boehringer light units (BLU); mean over the file's lines of this peptide [4] | normalised SPOT signal, Boehringer light units (BLU); mean over the file's lines of this peptide [5] | normalised SPOT signal, Boehringer light units (BLU); mean over the file's lines of this peptide [6] | normalised SPOT signal, Boehringer light units (BLU); mean over the file's lines of this peptide [7]
IDIPRTNPHIPLYQ [YOR070C 339-352] | 50.1 | 3.3 | 139 | 9.1 | 40.3 | 34.3 | 0
IKMSRSPPRPPSLK [YDR243C 237-250] | 1330 | 416 | 17700 | 1150 | 223 | 8250 | 1780
IESLREIPYGPDFD [YML105C 200-213] | 16.4 | 22 | 116 | 14.9 | 47.7 | 2.6 | 1.9
IAKLKRKPVVPRLK [YPR056W 317-330] | 136 | 39.8 | 888 | 29.5 | 57.1 | 489 | 87.4
ILERKNIPRQPAIR [YDL034W 13-26] | 1780 | 19.9 | 603 | 138 | 99.1 | 354 | 35.3
IAVTRSIPRGPDKN [YOR322C 264-277] | 256 | 34.5 | 158 | 283 | 65 | 555 | 43.3
ILAVKKNPQSPMYT [YER126C 197-210] | 128 | 26.2 | 175 | 26.4 | 25.9 | 69.6 | 22.6
IAGQRTFPEDPNYP [YKR051W 375-388] | 45.1 | 0 | 172 | 28.7 | 43.4 | 89.6 | 16
